The source of these data is the supplement of paper PMC11246515.

± gives the standard deviation of the averaged measurements.

This data set is described as follows: total protein half-life in vivo (active degradation + dilution); higher = more stable protein.
The mark [1] stands for this setting: E. coli NCM3722 delta-clpP delta-lon delta-hslV, growth: N-lim chemostat, doubling time 6 h.
[2] abbreviates: E. coli NCM3722 delta-clpP, growth: N-lim chemostat, doubling time 6 h.
[3] abbreviates: E. coli NCM3722 delta-hslV, growth: N-lim chemostat, doubling time 6 h.
The mark [4] stands for this setting: E. coli NCM3722 delta-lon, growth: N-lim chemostat, doubling time 6 h.
The mark [5] stands for this setting: E. coli NCM3722 delta-smpB, growth: N-lim chemostat, doubling time 6 h.
Setting [6] is: wild type E. coli NCM3722, growth: C-lim chemostat, doubling time 3 h.
The mark [7] stands for this setting: wild type E. coli NCM3722, growth: C-lim chemostat, doubling time 6 h.
Setting [8] is: wild type E. coli NCM3722, growth: C-lim chemostat, doubling time 12 h.
Setting [9] is: wild type E. coli NCM3722, growth: N-lim chemostat, doubling time 6 h.
[10] abbreviates: wild type E. coli NCM3722, growth: N-lim chemostat, doubling time 12 h.
The mark [11] stands for this setting: wild type E. coli NCM3722, growth: P-lim chemostat, doubling time 6 h.
Where [12] appears, read: wild type E. coli NCM3722, growth: P-lim chemostat, doubling time 12 h.

Take “MQTPHILIVEDELVTRNTLKSIFEAEGYDVFEATDGAEMHQILSEYDINLVIMDINLPGKNGLLLARELREQANVALMFLTGRDNEVDKILGLEIGADDYITKPFNPRELTIRARNLLSRTMNLGTVSEERRSVESYKFNGWELDINSRSLIGPDGEQYKLPRSEFRAMLHFCENPGKIQSRAELLKKMTGRELKPHDRTVDVTIRRIRKHFESTPDTPEIIATIHGEGYRFCGDLED [P0A9Q1]”: the “total protein half-life in vivo” value under setting [1] came to 5.53 ± 0.35 h; the “total protein half-life in vivo” value under setting [2] was found to be 5.61 ± 1 h; the “total protein half-life in vivo” value under setting [3] came out at 4.95 ± 0.086 h; the “total protein half-life in vivo” value under setting [4] worked out at 5.76 ± 0.36 h; the “total protein half-life in vivo” value under setting [5] stood at 4.87 ± 0.05 h; the “total protein half-life in vivo” value under setting [6] came out at 2.73 ± 0.069 h. Besides, the “total protein half-life in vivo” value under setting [7] turned out to be 5.78 ± 0.19 h; the “total protein half-life in vivo” value under setting [8] was 9.44 ± 1.7 h; the “total protein half-life in vivo” value under setting [9] stood at 4.76 ± 0.39 h; the “total protein half-life in vivo” value under setting [10] stood at 8.14 ± 0.24 h; the “total protein half-life in vivo” value under setting [11] was 5.18 ± 0.058 h; the “total protein half-life in vivo” value under setting [12] was 10.3 ± 0.2 h.

For “MMNSTNKLSVIIPLYNAGDDFRTCMESLITQTWTALEIIIINDGSTDNSVEIAKYYAENYPHVRLLHQANAGASVARNRGIEVATGKYVAFVDADDEVYPTMYETLMTMALEDDLDVAQCNADWCFRETGETWQSIPTDRLRSTGVLTGPDWLRMGLSSRRWTHVVWMGVYRRDVIVKNNIKFIAGLHHQDIVWTTEFMFNALRARYTEQSLYKYYLHNTSVSRLHRQGNKNLNYQRHYIKITRLLEKLNRNYADKIMIYPEFHQQITYEALRVCHAVRKEPDILTRQRMIAEIFTSGMYKRLITNVRSVKVGYQALLWSFRLWQWRDKTRSHHRITRSAFNLR”, the “total protein half-life in vivo” value under setting [1] was 5.55 ± 0.4 h; the “total protein half-life in vivo” value under setting [2] amounted to 0.858 h; the “total protein half-life in vivo” value under setting [5] worked out at 0.809 ± 0.17 h; the “total protein half-life in vivo” value under setting [11] worked out at 0.32 ± 0.2 h; the “total protein half-life in vivo” value under setting [12] was determined as 0.789 ± 0.74 h.

With “MQENQQITKKEQYNLNKLQKRLRRNVGEAIADFNMIEEGDRIMVCLSGGKDSYTMLEILRNLQQSAPINFSLVAVNLDQKQPGFPEHVLPEYLEKLGVEYKIVEENTYGIVKEKIPEGKTTCSLCSRLRRGILYRTATELGATKIALGHHRDDILQTLFLNMFYGGKMKGMPPKLMSDDGKHIVIRPLAYCREKDIQRFADAKAFPIIPCNLCGSQPNLQRQVIADMLRDWDKRYPGRIETMFSAMQNVVPSHLCDTNLFDFKGITHGSEVVNGGDLAFDREEIPLQPACWQPEEDENQLDELRLNVVEVK”, the “total protein half-life in vivo” value is, setting by setting: under setting [1], 5.11 ± 0.8 h; under setting [2], 3.63 ± 0.23 h; under setting [3], 0.983 ± 0.28 h; under setting [4], 1.44 h; under setting [5], 1.0485 ± 0.00067 h; under setting [6], 1.63 ± 0.051 h. Moreover, the “total protein half-life in vivo” value under setting [7] turned out to be 2.26 ± 0.035 h; the “total protein half-life in vivo” value under setting [8] came out at 2.85 ± 0.35 h; the “total protein half-life in vivo” value under setting [9] is 1.26 h; the “total protein half-life in vivo” value under setting [10] amounted to 1.58 ± 0.57 h; the “total protein half-life in vivo” value under setting [11] stood at 2.23 ± 0.24 h; the “total protein half-life in vivo” value under setting [12] stood at 4.26 ± 0.73 h.

For “MENLARFLSTTLKQLRQQRGWSLSRLAEATGVSKAMLGQIERNESSPTVATLWKIATGLNVPFSTFISPPQSATPSVYDPQQQAMVITSLFPYDPQLCFEHFSIQMASGAISESTPHEKGVIEHVVVIDGQLDLCVDGEWQTLNCGEGVRFAADVTHIYRNGGEQTVHFHSLIHYPRS”, the “total protein half-life in vivo” value was 5.69 ± 0.83 h under setting [1]; 4.59 ± 0.28 h under setting [2]; 4.71 ± 0.22 h under setting [3]; 5.58 ± 0.23 h under setting [4]; 5.33 ± 1.1 h under setting [5]; 3.4 ± 0.15 h under setting [6]. Further, the “total protein half-life in vivo” value is, setting by setting: under setting [7], 5.27 ± 0.69 h; under setting [8], 10.1 ± 0.49 h; under setting [9], 4.52 ± 0.93 h; under setting [10], 7.78 ± 0.9 h; under setting [11], 6.27 ± 1.1 h; under setting [12], 9.9 ± 0.44 h.

Take “MALLNVDKLSVHFGDESAPFRAVDRISYSVKQGEVVGIVGESGSGKSVSSLAIMGLIDYPGRVMAEKLEFNGQDLQRISEKERRNLVGAEVAMIFQDPMTSLNPCYTVGFQIMEAIKVHQGGNKSTRRQRAIDLLNQVGIPDPASRLDVYPHQLSGGMSQRVMIAMAIACRPKLLIADEPTTALDVTIQAQIIELLLELQQKENMALVLITHDLALVAEAAHKIIVMYAGQVVETGDAHAIFHAPRHPYTQALLRALPEFAQDKERLASLPGVVPGKYDRPNGCLLNPRCPYATDRCRAEEPALNMLADGRQSKCHYPLDDAGRPTL [P0AAG0]”: the “total protein half-life in vivo” value under setting [1] was 6.72 ± 1.2 h; the “total protein half-life in vivo” value under setting [2] worked out at 6.26 ± 0.28 h; the “total protein half-life in vivo” value under setting [3] came out at 6.21 ± 0.75 h; the “total protein half-life in vivo” value under setting [4] was found to be 7.31 ± 0.78 h; the “total protein half-life in vivo” value under setting [5] amounted to 6.33 ± 0.16 h; the “total protein half-life in vivo” value under setting [6] amounted to 3.12 ± 0.29 h. Also, the “total protein half-life in vivo” value was found to be 6.95 ± 0.84 h under setting [7]; 12 ± 0.99 h under setting [8]; 5.94 ± 0.23 h under setting [9]; 12.6 ± 0.25 h under setting [10]; 6.27 ± 0.38 h under setting [11]; 13.3 ± 1.2 h under setting [12].

For the sequence “MIDFGNFYSLIAKNHLSHWLETLPAQIANWQREQQHGLFKQWSNAVEFLPEIKPYRLDLLHSVTAESEEPLSAGQIKRIETLMRNLMPWRKGPFSLYGVNIDTEWRSDWKWDRVLPHLSDLTGRTILDVGCGSGYHMWRMIGAGAHLAVGIDPTQLFLCQFEAVRKLLGNDQRAHLLPLGIEQLPALKAFDTVFSMGVLYHRRSPLEHLWQLKDQLVNEGELVLETLVIDGDENTVLVPGDRYAQMRNVYFIPSALALKNWLKKCGFVDIRIADVSVTTTEEQRRTEWMVTESLADFLDPHDPGKTVEGYPAPKRAVLIARKP”, the “total protein half-life in vivo” value by setting is: under setting [1], 5.27 ± 0.08 h; under setting [2], 4.888 ± 0.034 h; under setting [3], 5.33 ± 0.13 h; under setting [4], 5.97 ± 1.3 h; under setting [5], 5.36 ± 0.11 h; under setting [6], 3.11 ± 0.086 h. The “total protein half-life in vivo” value worked out at 5.84 ± 0.0082 h under setting [7]; 13.1 ± 3.1 h under setting [8]; 5.59 h under setting [9]; 11.6 ± 2.1 h under setting [10]; 5.89 ± 0.94 h under setting [11]; 12.3 ± 0.86 h under setting [12].
